In the assay the target is human MC4 receptor (human), P32245. Nature of the assay: competition. As to conditions: modification not given.

These results are taken from patent US20070105759.

human MC4 receptor (human), P32245, sequence (P32245 whole entry): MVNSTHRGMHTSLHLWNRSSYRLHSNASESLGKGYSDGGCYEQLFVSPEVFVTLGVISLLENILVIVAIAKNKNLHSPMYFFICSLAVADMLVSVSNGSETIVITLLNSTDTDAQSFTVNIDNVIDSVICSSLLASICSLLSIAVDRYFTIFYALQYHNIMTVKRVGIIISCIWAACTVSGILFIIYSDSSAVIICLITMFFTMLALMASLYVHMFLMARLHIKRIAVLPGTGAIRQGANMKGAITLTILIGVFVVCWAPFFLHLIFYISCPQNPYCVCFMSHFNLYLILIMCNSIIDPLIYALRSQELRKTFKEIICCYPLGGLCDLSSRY

In turn, YRCEHFRWC [Compound 77] came in with an inhibition constant Ki of 0.41 nM.

As a reminder, the Ki is a dissociation constant, usually derived from enzyme kinetics or from competition with a known ligand.
